B1: ZNF263 (parent)
chain: LLRHQRIHTGERPYKCPECGKSFS

Variants of: B1
Experiment: protein stability index of a GFP-peptide fusion (GPS, HEK-293T) (PSI 1-6); higher = more stable
Conditions: c terminus: a fixed tail appended
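Further: lentivirally expressed fusions sorted by FACS into six bins by GFP to DsRed ratio, PSI derived from sequencing read proportions per bin multiplied by bin number.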

Protein stability index of substitutions, site by site:
F23: V 2.53, W 1.84, Y 2.79, T 2.59, S 2.25
S24: N 2.34, Y 2.25, K 2.07, L 2.43, M 2.28, T 2.08, V 2.62, R 1.94, F 2.01, Q 3.11, G 3.65, I 2.11, P 2.24, D 2.36, C 3.14, A 1.92, H 2.12, E 1.88, W 2.59

Source: the supplement of paper PMC10567573
